From US20230080224A1 (AGENCY FOR SCIENCE TECHNOLOGY AND RESEARCH, published 2023)

How the values were obtained:
[1] = biological target: T1, human ALPPL2 expressed on cells (human, UniProt P10696 20-503); test: FACS (FIG. 13)
T1 construct: whole, on cells; also called placental-like alkaline phosphatase

[2] = biological target: T2, human ALPP expressed on cells (human, UniProt P05187 23-506); test: FACS (FIG. 13)
T2 construct: whole, on cells

[3] = biological target: T3, human ALPPL2 (recombinant protein) (human, UniProt P10696 20-503); test: BLI
T3 chain: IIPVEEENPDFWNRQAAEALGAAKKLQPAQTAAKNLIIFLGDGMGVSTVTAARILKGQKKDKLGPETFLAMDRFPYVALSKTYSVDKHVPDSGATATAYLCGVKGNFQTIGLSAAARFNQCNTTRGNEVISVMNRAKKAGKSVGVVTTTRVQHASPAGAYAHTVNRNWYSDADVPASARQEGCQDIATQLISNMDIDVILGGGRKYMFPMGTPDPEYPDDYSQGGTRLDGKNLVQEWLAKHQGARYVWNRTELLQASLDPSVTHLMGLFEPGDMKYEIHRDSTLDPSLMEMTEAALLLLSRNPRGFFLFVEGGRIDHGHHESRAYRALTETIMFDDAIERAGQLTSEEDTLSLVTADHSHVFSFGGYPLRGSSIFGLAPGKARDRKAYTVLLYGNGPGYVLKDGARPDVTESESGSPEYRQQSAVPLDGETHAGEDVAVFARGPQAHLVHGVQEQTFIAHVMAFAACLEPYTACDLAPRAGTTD

[4] = biological target: T4, human ALPP (recombinant protein) (human, UniProt P05187 23-506); test: BLI
T4 chain: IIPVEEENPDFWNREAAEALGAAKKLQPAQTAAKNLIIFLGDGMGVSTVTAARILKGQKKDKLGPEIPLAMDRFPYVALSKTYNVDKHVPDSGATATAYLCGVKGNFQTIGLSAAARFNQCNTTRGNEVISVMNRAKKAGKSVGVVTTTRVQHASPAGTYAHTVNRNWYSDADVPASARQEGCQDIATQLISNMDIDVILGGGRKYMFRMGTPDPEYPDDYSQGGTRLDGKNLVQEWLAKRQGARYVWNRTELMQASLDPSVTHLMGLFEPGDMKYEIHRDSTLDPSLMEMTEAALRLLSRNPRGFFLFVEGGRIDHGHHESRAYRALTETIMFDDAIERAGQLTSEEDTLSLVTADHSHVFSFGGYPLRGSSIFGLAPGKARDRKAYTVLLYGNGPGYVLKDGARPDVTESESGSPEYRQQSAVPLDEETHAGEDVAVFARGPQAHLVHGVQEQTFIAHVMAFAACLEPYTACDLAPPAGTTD

[5] = biological target: T5, human ALPI expressed on cells (human, UniProt P09923 20-503); test: FACS on transiently transfected 293T cells (FIG. 13A)
T5 construct: whole, on cells
T5 sequence (looked up): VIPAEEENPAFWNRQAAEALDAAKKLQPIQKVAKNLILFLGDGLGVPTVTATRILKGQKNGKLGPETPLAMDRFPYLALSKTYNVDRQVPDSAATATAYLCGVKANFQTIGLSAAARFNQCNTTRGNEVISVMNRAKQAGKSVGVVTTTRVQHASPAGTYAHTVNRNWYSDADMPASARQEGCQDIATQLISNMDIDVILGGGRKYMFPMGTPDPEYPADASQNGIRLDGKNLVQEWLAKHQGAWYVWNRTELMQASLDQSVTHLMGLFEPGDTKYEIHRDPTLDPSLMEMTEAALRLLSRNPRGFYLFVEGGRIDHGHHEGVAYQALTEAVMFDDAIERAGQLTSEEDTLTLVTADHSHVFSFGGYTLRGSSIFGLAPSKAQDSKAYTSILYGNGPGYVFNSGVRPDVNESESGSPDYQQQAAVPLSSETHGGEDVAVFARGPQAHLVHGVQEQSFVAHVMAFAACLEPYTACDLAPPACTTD

[6] = biological target: T6, human ALPL expressed on cells (human, UniProt P05186 18-501); test: as above
T6 construct: whole, on cells
T6 sequence (looked up): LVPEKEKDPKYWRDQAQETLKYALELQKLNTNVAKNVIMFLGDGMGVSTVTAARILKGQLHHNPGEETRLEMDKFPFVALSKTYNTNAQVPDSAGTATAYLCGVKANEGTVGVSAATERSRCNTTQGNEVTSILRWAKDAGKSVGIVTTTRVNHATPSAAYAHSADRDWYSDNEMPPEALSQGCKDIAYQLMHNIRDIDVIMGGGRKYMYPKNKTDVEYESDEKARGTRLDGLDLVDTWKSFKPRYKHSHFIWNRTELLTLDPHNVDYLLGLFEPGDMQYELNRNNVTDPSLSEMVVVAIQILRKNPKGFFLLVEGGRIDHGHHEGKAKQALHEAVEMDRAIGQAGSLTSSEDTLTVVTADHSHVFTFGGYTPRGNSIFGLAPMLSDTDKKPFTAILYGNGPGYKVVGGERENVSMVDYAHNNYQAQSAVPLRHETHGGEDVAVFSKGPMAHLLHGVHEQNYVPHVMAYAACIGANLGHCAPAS

[7] = biological target: T7, human ALPPL2 (recombinant protein) (human, UniProt P10696 20-503, limits assumed); test: SPR, Biacore T200, ligand captured by streptavidin on CM5 chip, antibody as analyte
T7 construct: biotinylated where captured on streptavidin
Method: (§1) Select clones (C4, C15, C131, C12, C18, C36 and C53) were humanized by grafting the CDRs to a human IgG1 framework. […] Surface plasmon resonance was studied using Biacore T200. Ligands (e.g. ALPPL2 or ALPP) were immobilized on biosensors CM5 chips captured with the streptavidin. Ligands-loaded sensors were then incubated with different concentrations of analyte (recombinant expressed humanized antibody clones) to measure affinity.

[8] = biological target: human ALPP (recombinant protein) (human, UniProt P05187 23-506, limits assumed); test: as above
Method: as §1

[9] = biological target: T7, human ALPPL2 (recombinant protein); test: screen of rabbit B-cell clones by ELISA and FACS
From the text: (§2) Specific clones were screened and identified by ELISA and high throughput flow cytometry (FIG. 3). Rabbit kidney cells were transfected with either truncated (for ELISA screen) or full-length (for FACS screen) ALPI and ALPPL2.

[10] = biological target: T8, ALPI (screening and SPR/ELISA protein) (UniProt P09923 20-503, limits assumed); test: screen of rabbit B-cell clones by ELISA and FACS
T8 sequence (looked up): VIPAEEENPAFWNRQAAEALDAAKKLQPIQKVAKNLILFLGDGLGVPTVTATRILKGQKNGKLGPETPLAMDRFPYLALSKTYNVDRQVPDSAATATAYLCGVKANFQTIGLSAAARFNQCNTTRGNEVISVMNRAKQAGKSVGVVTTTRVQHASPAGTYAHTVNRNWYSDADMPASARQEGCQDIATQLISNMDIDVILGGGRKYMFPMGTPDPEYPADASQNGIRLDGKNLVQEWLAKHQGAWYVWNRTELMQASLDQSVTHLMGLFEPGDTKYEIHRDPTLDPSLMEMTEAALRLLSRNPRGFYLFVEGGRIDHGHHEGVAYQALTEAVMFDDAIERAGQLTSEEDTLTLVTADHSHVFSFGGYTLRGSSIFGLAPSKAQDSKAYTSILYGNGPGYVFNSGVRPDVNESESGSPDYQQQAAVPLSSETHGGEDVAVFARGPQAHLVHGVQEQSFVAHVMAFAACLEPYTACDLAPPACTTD
From the text: as §2

[11] = biological target: T3, human ALPPL2 (recombinant protein); test: BLI; single concentration
[12] = biological target: T1, human ALPPL2 expressed on cells; test: immunohistochemistry on FFPE ALPPL2+ve cell lines and tumor tissues
Method: To enable development of a companion diagnostic, the IHC activity of the antibodies was evaluated (FIG. 5). Antigen retrieval by Proteinase-K digestion, but not heat mediated antigen retrieval, enabled detection. C36, C45 and C130 enabled detection in ALPPL2+ve cell lines (SCH) and formalin fixed paraffin embedded (FFPE) human tumor tissues by IHC. […] This is also indicative the optimal therapeutic window of these antibodies in the clinic.

[13] = biological target: T3, human ALPPL2 (recombinant protein); test: SPR
[14] = biological target: T4, human ALPP (recombinant protein); test: SPR

B1: humanized C36 (antibody, human IgG1, V domains shown)
VH: EVQLVESGGGLVQPGGSLRLSCAASGFSFSSGYNICWVRQAPGKGLELIACIYTSSSGSTYYASWAKGRFTISRDNSKNTLYLQMNSLRAEDTAVYYCARGEAYYAYGYVGYAYYHGAFDPWGQGTLVTVSS
VL: DIQMTQSPSSLSASVGDRVTITCQASHSISKYFSWYQQKPGKVPKLLIYEASTLASGVPSRFSGSGSGTDFTLTISSLQPEDVATYYCQSYYYGTSSSYAFGQGTKVEIK
notes: CDRs grafted to a human IgG1 framework; recombinant; also called hC36
In the case of B1, the binding result [1] is reported as “binds”, the binding result [2] is reported as “binds” and the Kd [3] is reported as 0.3 nM. For the same binder, the Kd [4] was 0.2 nM, the binding result [5] was “no binding” and the binding result [6] was “no binding”. B1: binds [7]; binds [8].

B2: AB1C36 (antibody, V domains shown)
VH: QSLEESGGDLVKPGASLTLTCTASGFSFSSGYNICWVRQAPGKGLELIACIYTSSSGSTYYASWAKGRFTISKTSSTTVTLQMTSLTVADTATYFCARGEAYYAYGYVGYAYYHGAFDPWGPGTLVTVSS
VL: DIVMTQTPASVEAGVGGTVTIKCQASHSISKYFSWYQQKIGQPPKLLIYEASTLASGVPSRFKGSGSGTQFTLTISDLECADAATYYCQSYYYGTSSSYAFGGGTEVVVK
notes: Rabbit antibody cloned from a single B cell
With B2 the binding result [9] was “binds”, the binding result [10] was “no binding” and the Kd [11] was 1.6 nM. B2: binds [12].

B3: humanized C18 (antibody, human IgG1, V domains shown)
VH: EVQLVESGGGLVQPGGSLRLSCAASGFSFSSYWTCWVRQAPGKGLEWLGCTDGGSSGDTYYATWAKGRFTISRDNSKNTLYLQMNSLRAEDTAVYYCARNLITWDLWGQGTLVTVSS
VL: DIQMTQSPSSLSASVGDRVTITCQASESVYNNNQLSWYQQKPGKVPKLLIYWASKLASGVPSRFSGSGSGTDFTLTISSLQPEDVATYYCAGYKSSITDGNAFGQGTKVEIK
notes: CDRs grafted to a human IgG1 framework; recombinant; also called hC18
For B3, the Kd [13] was 0.144 nM, the Kd [14] was 0.526 nM and the binding result [7] was “binds”. B3: binds [8].

B4: humanized C12 (antibody, human IgG1, V domains shown)
VH: EVQLVESGGGLVQPGGSLRLSCAASGFSFSSSYWISWVRQAPGKGLEWIACIAIGSSGTTYYASWAKGRFTISRDNSKNTLYLQMNSLRAEDTAVYYCARSGDGYTYVELWGQGTLVTVSS
VL: DIQMTQSPSSLSASVGDRVTITCQASQSISSYLAWYQQKPGKVPKLLIYRASTLASGVPSRFSGSGSGTDFTLTISSLQPEDVATYYCQNYYDIDDSDNTFGQGTKVEIK
notes: CDRs grafted to a human IgG1 framework; recombinant; also called hC12
For B4, the Kd [13] was 0.08 nM, the Kd [14] was 0.235 nM and the binding result [7] was “binds”. B4: binds [8].

B5: AB2C130 (antibody, V domains shown)
VH: QSLEESGGDLVKPGASLTLTCTASGFSFSSGYWICWVRQAPGKGLEWIACIYTGVGATYYASWAKGRFTISKTSSTTVTLQMTSLTAADTATYFCARDFGGSSGFYFNLWGPGTLVTVSS
VL: FELTQTPSSVEAAVGATVTIKCQASQSISNALAWYQQKPGQPPKLLIYSASTLESGVPSRFKGSGSGTEFTLTISDLECADAATYYCQNYYGSTSSSYGVAFGGGTEVVVK
notes: as for B2
For B5, the binding result [9] was “binds”, the binding result [10] was “no binding” and the Kd [11] was 0.001 nM. B5: binds [12].

B6: humanized C4 (antibody, V domains shown)
VH: EVQLVESGGGLVQPGGSLRLSCAASGFTISNNYWICWVRQAPGKGLEWIGCIATGDGSTYYASWAKGRFTISRDNSKNTLYLQMNSLRAEDTAVYYCARGAAGSSWTTYFDFWGQGTLVTVSS
VL: DIQMTQSPSSLSASVGDRVTITCQAGQNIDNYLSWYQQKPGKVPKLLIYRASTLASGVPSRFSGSGSGTDFTLTISSLQPEDVATYYCQNNNGGSTFTGFPFGQGTKVEIK
notes: CDRs grafted to a human IgG1 framework; recombinant; also called hC4
For B6, the binding result [1] was “binds”, the binding result [2] was “binds” and the Kd [13] was 0.014 nM. For the same binder, the Kd [14] was 0.0001 nM, the binding result [5] was “no binding” and the binding result [6] was “no binding”. B6: binds [7]; binds [8].

B7: AB1C45 (antibody, V domains shown)
VH: QERLEESGGGLVQPEGSLTLTCTASGFSFSSSYYMCWVRQAPGKGMEWIGCIYTGNDDTWYASWAKGRFTVSKTSSTTVTLQMTSLTATDTATYFCARGLSPIDLWGPGTLVTVSS
VL: IVMTQTPSSKSVPVGDTVTINCQASESIYNNNNLGWYQQKPGQPPKLLIYWASTLASGVPSRFKGSGSGTQFTLTISDVECDDAATYYCAGYKSRTTDGSAFGGGTEVVVK
notes: as for B2
B7: binds [9]; no binding [10]; binds [12].
